In patent US20240352133A1:

B1: VRDN-03089 (antibody, V domains shown)
VH: QVQLVESGGGVVQPGRSLRLSCAASGFTFSSYGMHWVRQAPGKGLEWVAIIWFDGSSTYYADSVRGRFTISRDNSKNTLYLQMNSLRAEDTAVYYCARELGRRYFDLWGRGTLVTVSS
VL: EIVLTQSPATLSLSPGERATLSCRASQSVSSSYLAWYQQKPGQAPRLLIYDASKRATGIPARFSGSGSGTDFTLTISSLEPEDFAVYYCQQRSKWPPWTFGQGTKVEIK
B2: VRDN-03091 (antibody, V domains shown)
VH: QVQLVESGGGVVQPGRSLRLSCAASGFTFSSYGMHWVRQAPGKGLEWVAIIWFDGSSTYYADSVRGRFTISRDNSKNTLYLQMNSLRAEDTAVYYCARELGRRYFDLWGRGTLVTVSS
VL: EIVLTQSPATLSLSPGERATLSCGASQSVSSSYLAWYQQKPGQAPRLLIYDASKRATGIPARFSGSGSGTDFTLTISSLEPEDFAVYYCQQRSKWPPWTFGQGTKVEIK
B3: VRDN-03116 (antibody, V domains shown)
VH: EVQLVESGGGVVQPGRSLRLSCAASGFTFSDYTMHWVRQAPGKGLEWVAIIWFDGSSKYYPGSVKGRFTISRDNSKNTLYLQMNSLRAEDTAVYYCARELGRRYFDIWGRGTLVTVSS
VL: EIVMTQSPATLSVSPGERATLSCRASQGVSSYLAWYQQKPGQAPRLLIYGASTRATGIPARFSGSGSGTEFTLTISSLQSEDFAVYYCQQRSRWPPWTFGQGTKLEIK
B4: VRDN-03117 (antibody, V domains shown)
VH: EVQLVESGGGVVQPGRSLRLSCAASGFTFSSYSMHWVRQAPGKGLEWVAIIWFDGSNKYYADSVKSRFTISRDNSKNTLYLQMNSLRAEDTAVYYCARELGRRYFDIWGQGTLVTVSS
VL: EIVMTQSPATLSVSPGERATLSCRASQGVSSYLAWYQQKPGQAPRLLIYGASTRATGIPARFSGSGSGTEFTLTISSLQSEDFAVYYCQQRSRWPPWTFGQGTKLEIK
B5: VRDN-03118 (antibody, V domains shown)
VH: EVQLVESGGGVVQPGRSLRLSCAASGFTFSSYSMHWVRQAPGKGLEWVAIIWFDGSSKYYVDSVKSRFTISRDNSKNTLYLQMNSLRAEDTAVYYCARELGRRYFDIWGQGTLVTVSS
VL: EIVMTQSPATLSVSPGERATLSCRASQGVSSYLAWYQQKPGQAPRLLIYGASTRATGIPARFSGSGSGTEFTLTISSLQSEDFAVYYCQQRSRWPPWTFGQGTKLEIK
B6: VRDN-03119 (antibody, V domains shown)
VH: EVQLVESGGGVVQPGRSLRLSCAASGFTFSSYSMHWVRQAPGKGLEWVAIIWFDGSEKYYVDSVKSRFTISRDNSKNTLYLQMNSLRAEDTAVYYCARELGRRYFDIWGQGTLVTVSS
VL: EIVMTQSPATLSVSPGERATLSCRASQGVSSYLAWYQQKPGQAPRLLIYGASTRATGIPARFSGSGSGTEFTLTISSLQSEDFAVYYCQQRSRWPPWTFGQGTKLEIK
B7: VRDN-03120 (antibody, V domains shown)
VH: EVQLVESGGGVVQPGRSLRLSCAASGFTFSSYSMHWVRQAPGKGLEWVAVIWYDGSSKYYADSVKGRFTISRDNSKNTLYLQMNSLRAEDTAVYYCARELGRRYFDIWGQGTLVTVSS
VL: EIVMTQSPATLSVSPGERATLSCRASQGVSSYLAWYQQKPGQAPRLLIYGASTRATGIPARFSGSGSGTEFTLTISSLQSEDFAVYYCQQRSRWPPWTFGQGTKLEIK
B8: VRDN-03121 (antibody, V domains shown)
VH: EVQLVESGGGVVQPGRSLRLSCAASGFTFSSYSMHWVRQAPGKGLEWVAVIWYDGSSKYYADSVKSRFTISRDNSKNTLYLQMNSLRAEDTAVYYCARELGRRYFDIWGRGTLVTVSS
VL: EIVMTQSPATLSVSPGERATLSCRASQGVSSYLAWYQQKPGQAPRLLIYGASTRATGIPARFSGSGSGTEFTLTISSLQSEDFAVYYCQQRSRWPPWTFGQGTKLEIK
B9: VRDN-03122 (antibody, V domains shown)
VH: EVQLVESGGGVVQPGRSLRLSCAASGFTFSSYSMHWVRQAPGKGLEWVAVIWYDGSSKYYADSVKSRFTISRDNSKNTLYLQMNSLRAEDTAVYYCARELGRRYFDIWGQGTLVTVSS
VL: EIVMTQSPATLSVSPGERATLSCRASQGVSSYLAWYQQKPGQAPRLLIYGASTRATGIPARFSGSGSGTEFTLTISSLQSEDFAVYYCQQRSRWPPWTFGQGTKLEIK
B10: VRDN-03123 (antibody, V domains shown)
VH: EVQLVESGGGVVQPGRSLRLSCAASGFTFDDYAMHWVRQAPGKGLEWVAIIWFDGSSKYYADSVKGRFTISRDNSKNTLYLQMNSLRAEDTAVYYCARELGRRYFDIWGQGTLVTVSS
VL: EIVMTQSPATLSVSPGERATLSCRASQGVSSYLAWYQQKPGQAPRLLIYGASTRATGIPARFSGSGSGTEFTLTISSLQSEDFAVYYCQQRSRWPPWTFGQGTKLEIK
B11: VRDN-03124 (antibody, V domains shown)
VH: EVQLVESGGGVVQPGRSLRLSCAASGFTFDDYTMHWVRQAPGKGLEWVAIIWFDGSSKYYADSVKGRFTISRDNSKNTLYLQMNSLRAEDTAVYYCARELGRRYFDIWGQGTLVTVSS
VL: EIVMTQSPATLSVSPGERATLSCRASQGVSSYLAWYQQKPGQAPRLLIYGASTRATGIPARFSGSGSGTEFTLTISSLQSEDFAVYYCQQRSRWPPWTFGQGTKLEIK
B12: VRDN-03125 (antibody, V domains shown)
VH: EVQLVESGGGVVQPGRSLRLSCAASGFTFDDYAMHWVRQAPGKGLEWVAVIWYDGSSKYYADSVKGRFTISRDNSKNTLYLQMNSLRAEDTAVYYCARELGRRYFDIWGQGTLVTVSS
VL: EIVMTQSPATLSVSPGERATLSCRASQGVSSYLAWYQQKPGQAPRLLIYGASTRATGIPARFSGSGSGTEFTLTISSLQSEDFAVYYCQQRSRWPPWTFGQGTKLEIK
B13: VRDN-03126 (antibody, V domains shown)
VH: EVQLVESGGGVVQPGRSLRLSCAASGFTFDDYTMHWVRQAPGKGLEWVAVIWYDGSSKYYADSVKGRFTISRDNSKNTLYLQMNSLRAEDTAVYYCARELGRRYFDIWGQGTLVTVSS
VL: EIVMTQSPATLSVSPGERATLSCRASQGVSSYLAWYQQKPGQAPRLLIYGASTRATGIPARFSGSGSGTEFTLTISSLQSEDFAVYYCQQRSRWPPWTFGQGTKLEIK
B14: VRDN-03127 (antibody, V domains shown)
VH: EVQLVESGGGVVQPGRSLRLSCAASGFTFSDYTMHWVRQAPGKGLEWVAIIWFDGSSKYYADSVKSRFTISRDNSKNTLYLQMNSLRAEDTAVYYCARELGRRYFDIWGQGTLVTVSS
VL: EIVMTQSPATLSVSPGERATLSCRASQGVSSYLAWYQQKPGQAPRLLIYGASTRATGIPARFSGSGSGTEFTLTISSLQSEDFAVYYCQQRSRWPPWTFGQGTKLEIK
B15: VRDN-03128 (antibody, V domains shown)
VH: EVQLVESGGGVVQPGRSLRLSCAASGFTFSDYTMHWVRQAPGKGLEWVAIIWFDGSSKYYPGSVKGRFTISRDNSKNTLYLQMNSLRAEDTAVYYCARELGRRYFDIWGRGTLVTVSS
VL: EIVMTQSPATLSVSPGERATLSCRASQGVSSNLAWYQQKPGQAPRLLIYGASTRATGIPARFSGSGSGTEFTLTISSLQSEDFAVYYCQQRSRWPPWTFGGGTKLEIK
B16: VRDN-03129 (antibody, V domains shown)
VH: EVQLVESGGGVVQPGRSLRLSCAASGFTFSSYSMHWVRQAPGKGLEWVAIIWFDGSNKYYADSVKSRFTISRDNSKNTLYLQMNSLRAEDTAVYYCARELGRRYFDIWGQGTLVTVSS
VL: EIVMTQSPATLSVSPGERATLSCRASQGVSSNLAWYQQKPGQAPRLLIYGASTRATGIPARFSGSGSGTEFTLTISSLQSEDFAVYYCQQRSRWPPWTFGGGTKLEIK
B17: VRDN-03130 (antibody, V domains shown)
VH: EVQLVESGGGVVQPGRSLRLSCAASGFTFSSYSMHWVRQAPGKGLEWVAIIWFDGSSKYYVDSVKSRFTISRDNSKNTLYLQMNSLRAEDTAVYYCARELGRRYFDIWGQGTLVTVSS
VL: EIVMTQSPATLSVSPGERATLSCRASQGVSSNLAWYQQKPGQAPRLLIYGASTRATGIPARFSGSGSGTEFTLTISSLQSEDFAVYYCQQRSRWPPWTFGGGTKLEIK
B18: VRDN-03131 (antibody, V domains shown)
VH: EVQLVESGGGVVQPGRSLRLSCAASGFTFSSYSMHWVRQAPGKGLEWVAIIWFDGSEKYYVDSVKSRFTISRDNSKNTLYLQMNSLRAEDTAVYYCARELGRRYFDIWGQGTLVTVSS
VL: EIVMTQSPATLSVSPGERATLSCRASQGVSSNLAWYQQKPGQAPRLLIYGASTRATGIPARFSGSGSGTEFTLTISSLQSEDFAVYYCQQRSRWPPWTFGGGTKLEIK
B19: VRDN-03132 (antibody, V domains shown)
VH: EVQLVESGGGVVQPGRSLRLSCAASGFTFSSYSMHWVRQAPGKGLEWVAVIWYDGSSKYYADSVKGRFTISRDNSKNTLYLQMNSLRAEDTAVYYCARELGRRYFDIWGQGTLVTVSS
VL: EIVMTQSPATLSVSPGERATLSCRASQGVSSNLAWYQQKPGQAPRLLIYGASTRATGIPARFSGSGSGTEFTLTISSLQSEDFAVYYCQQRSRWPPWTFGGGTKLEIK
B20: VRDN-03133 (antibody, V domains shown)
VH: EVQLVESGGGVVQPGRSLRLSCAASGFTFSSYSMHWVRQAPGKGLEWVAVIWYDGSSKYYADSVKSRFTISRDNSKNTLYLQMNSLRAEDTAVYYCARELGRRYFDIWGRGTLVTVSS
VL: EIVMTQSPATLSVSPGERATLSCRASQGVSSNLAWYQQKPGQAPRLLIYGASTRATGIPARFSGSGSGTEFTLTISSLQSEDFAVYYCQQRSRWPPWTFGGGTKLEIK

Biological target: Recombinant human his-tagged IGF 1R extracellular domain protein (human) (UniProt P08069)
Assay: SPR, captured antibody, pH 7.4

Row | Binder | Kd [nM] | koff [s⁻¹] | kon [M⁻¹ s⁻¹]
1 | B1 | 236 | 0.0173 | 73300
2 | B2 | 11 | 0.00902 | 819000
3 | B3 | 4.3 | 0.00091 | 212000
4 | B4 | 8.1 | 0.00391 | 483000
5 | B5 | 1.08 | 0.000107 | 98600
6 | B6 | 9.78 | 0.00153 | 157000
7 | B7 | 3.96 | 0.00128 | 322000
8 | B8 | 4.27 | 0.000486 | 114000
9 | B9 | 4.09 | 0.000455 | 111000
10 | B10 | 1.43 | 9.19e-05 | 64200
11 | B11 | 1.84 | 0.000157 | 85200
12 | B12 | 8.61 | 0.00292 | 339000
13 | B13 | 8.7 | 0.00297 | 341000
14 | B14 | 0.573 | 7.48e-05 | 131000
15 | B15 | 7.3 | 0.00241 | 331000
16 | B16 | 11 | 0.00709 | 646000
17 | B17 | 2.72 | 0.000275 | 101000
18 | B18 | 16.2 | 0.00141 | 86900
19 | B19 | 10.1 | 0.004 | 395000
20 | B20 | 6.51 | 0.00228 | 350000
